± gives the standard error. Fewer inactive variants are shown than the library holds.
B1: glmS ribozyme (parent)
chain: AUAAAAGCGCCAGAACUACAGAAAUGUAGUUGACGAGGAGGAGGUUUAUCGAAUUUUCGGCGGAUGCCUCCAAA

Variants of: B1
Test: self-cleavage kobs at 10000 uM GlcN6P; higher = faster cleavage; RNA array
Settings: with glucosamine-6-phosphate
Procedure, shortened: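 Tracking of barcoded ribozyme variants used a hybridised Cy3 probe at 37 °C, after in situ transcription by E. coli RNA polymerase on sequenced MiSeq chips. The flowed solution held 40 μM to 10 mM glucosamine-6-phosphate in HEPES/KCl/Mg(OAc)2 buffer, and imaging ran over ~14 h. kobs was taken from exponential decay fits of normalised per-tile medians, and kcat and KM from weighted Michaelis–Menten fits.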
A39C U47C C70U was tested, and the “self-cleavage kobs at 10000 uM GlcN6P” value was 0.000412 ± 0.0001 s⁻¹.
With C11U A36C A39G U45G C61U the “self-cleavage kobs at 10000 uM GlcN6P” value was < 1e-05 s⁻¹.
In the case of C16A C50A U65G, the “self-cleavage kobs at 10000 uM GlcN6P” value is reported as < 1e-05 s⁻¹.
In the case of C16A G41A G51C, the “self-cleavage kobs at 10000 uM GlcN6P” value is reported as < 1e-05 s⁻¹.
With G13C U47A the “self-cleavage kobs at 10000 uM GlcN6P” value was 7.19e-05 ± 9.5e-06 s⁻¹.
G7U A15C A36G was tested, and the “self-cleavage kobs at 10000 uM GlcN6P” value was < 1e-05 s⁻¹.
For A12G A14C C50G C71A, the “self-cleavage kobs at 10000 uM GlcN6P” value was 0.000133 ± 3.2e-05 s⁻¹.
With A39U A52U U56G the “self-cleavage kobs at 10000 uM GlcN6P” value was 8.75e-05 ± 1.8e-05 s⁻¹.
C8G U30A A39G G41C U54G C67A was tested, and the “self-cleavage kobs at 10000 uM GlcN6P” value was < 1e-05 s⁻¹.
In the case of A12U U30A A39U U55C, the “self-cleavage kobs at 10000 uM GlcN6P” value is reported as 0.0143 ± 0.0028 s⁻¹.
With G43U G44U U65G the “self-cleavage kobs at 10000 uM GlcN6P” value was < 1e-05 s⁻¹.
For U46C C68A, the “self-cleavage kobs at 10000 uM GlcN6P” value was 3.47e-05 ± 1e-05 s⁻¹.
G7A A48G U65A was tested, and the “self-cleavage kobs at 10000 uM GlcN6P” value was < 1e-05 s⁻¹.
With A14U A53C C67U the “self-cleavage kobs at 10000 uM GlcN6P” value was 0.000208 ± 3.8e-05 s⁻¹.
For G7C C50G C61A, the “self-cleavage kobs at 10000 uM GlcN6P” value was 4e-05 ± 1.9e-05 s⁻¹.
G13C G32A U45G A52C C70U was tested, and the “self-cleavage kobs at 10000 uM GlcN6P” value was < 1e-05 s⁻¹.
With G37C U45A U54C G63C the “self-cleavage kobs at 10000 uM GlcN6P” value was < 1e-05 s⁻¹.
With C10G A14C G63U the “self-cleavage kobs at 10000 uM GlcN6P” value was < 1e-05 s⁻¹.
In the case of U57C C58A C70U, the “self-cleavage kobs at 10000 uM GlcN6P” value is reported as 3.37e-05 ± 1.7e-05 s⁻¹.
With U49A C70A the “self-cleavage kobs at 10000 uM GlcN6P” value was < 1e-05 s⁻¹.
For U30G G37U A52U G59A, the “self-cleavage kobs at 10000 uM GlcN6P” value was < 1e-05 s⁻¹.
A12C C16G U49A C68A was tested, and the “self-cleavage kobs at 10000 uM GlcN6P” value was < 1e-05 s⁻¹.
In the case of C11U G38U U45A A48U C71G, the “self-cleavage kobs at 10000 uM GlcN6P” value is reported as < 1e-05 s⁻¹.
For C10A G37C G51A, the “self-cleavage kobs at 10000 uM GlcN6P” value was < 1e-05 s⁻¹.
For A36G A64C U65G, the “self-cleavage kobs at 10000 uM GlcN6P” value was < 1e-05 s⁻¹.
G29U G38A A42G U47G C71U was tested, and the “self-cleavage kobs at 10000 uM GlcN6P” value was < 1e-05 s⁻¹.
For G13C U30C U47A, the “self-cleavage kobs at 10000 uM GlcN6P” value was 8.1e-05 ± 2.1e-05 s⁻¹.
In the case of C16A A64G C67G C70U, the “self-cleavage kobs at 10000 uM GlcN6P” value is reported as < 1e-05 s⁻¹.
G43A A52C C58A G66U C67G U69G was tested, and the “self-cleavage kobs at 10000 uM GlcN6P” value was < 1e-05 s⁻¹.
A6U A14U G29U was tested, and the “self-cleavage kobs at 10000 uM GlcN6P” value was < 1e-05 s⁻¹.
G37U G38A C67U was tested, and the “self-cleavage kobs at 10000 uM GlcN6P” value was < 1e-05 s⁻¹.
With U46A U47G G66C the “self-cleavage kobs at 10000 uM GlcN6P” value was 0.000401 ± 9.3e-05 s⁻¹.
With C10A C11G C16G A48U C50G C70A the “self-cleavage kobs at 10000 uM GlcN6P” value was 6.85e-05 ± 1.8e-05 s⁻¹.
C16U C50G C67U was tested, and the “self-cleavage kobs at 10000 uM GlcN6P” value was 0.000119 ± 2.9e-05 s⁻¹.
With G7U C61U C70A the “self-cleavage kobs at 10000 uM GlcN6P” value was < 1e-05 s⁻¹.
In the case of C8U A48U C71U, the “self-cleavage kobs at 10000 uM GlcN6P” value is reported as < 1e-05 s⁻¹.
In the case of G29C C34G G40C C70A, the “self-cleavage kobs at 10000 uM GlcN6P” value is reported as < 1e-05 s⁻¹.
In the case of A6C G7C G35A C68G, the “self-cleavage kobs at 10000 uM GlcN6P” value is reported as < 1e-05 s⁻¹.
With G9U A15U A52U the “self-cleavage kobs at 10000 uM GlcN6P” value was < 1e-05 s⁻¹.
For A14G U30A G41U C68A, the “self-cleavage kobs at 10000 uM GlcN6P” value was < 1e-05 s⁻¹.
For A12G G29A G63A, the “self-cleavage kobs at 10000 uM GlcN6P” value was < 1e-05 s⁻¹.
C8A A36G U57C was tested, and the “self-cleavage kobs at 10000 uM GlcN6P” value was < 1e-05 s⁻¹.
With A12G A42G U47C the “self-cleavage kobs at 10000 uM GlcN6P” value was 0.000197 ± 3.9e-05 s⁻¹.
In the case of C11G A42U C50G C67U, the “self-cleavage kobs at 10000 uM GlcN6P” value is reported as 0.000569 ± 0.00021 s⁻¹.
For G51A A52U G59A, the “self-cleavage kobs at 10000 uM GlcN6P” value was < 1e-05 s⁻¹.
In the case of A6C U31C G35A A42C, the “self-cleavage kobs at 10000 uM GlcN6P” value is reported as < 1e-05 s⁻¹.
U55G G59U was tested, and the “self-cleavage kobs at 10000 uM GlcN6P” value was 4.4e-05 ± 1.1e-05 s⁻¹.
For C16U G38A A52G C71G, the “self-cleavage kobs at 10000 uM GlcN6P” value was < 1e-05 s⁻¹.
For A15G C16U A39U, the “self-cleavage kobs at 10000 uM GlcN6P” value was 0.00651 ± 0.0013 s⁻¹.
For U30A C61A, the “self-cleavage kobs at 10000 uM GlcN6P” value was < 1e-05 s⁻¹.
For A33U G35C G62U C67U, the “self-cleavage kobs at 10000 uM GlcN6P” value was < 1e-05 s⁻¹.
With A33C U46G A52U the “self-cleavage kobs at 10000 uM GlcN6P” value was < 1e-05 s⁻¹.

Reference: the supplement of paper PMC7125110
